Assays:
[1] = target: Ma1α-neoGreen, expressed in Xenopus laevis oocytes (apple (Malus domestica)); assay: single-molecule photobleaching step counting (TIRF); Ma1α-neoGreen alone in X. laevis oocytes, 16-24 h after cRNA injection, vitelline membrane removed, ND96 solution
[2] = target: Ma1α-neoGreen, expressed in Xenopus laevis oocytes (apple (Malus domestica)); assay: single-molecule photobleaching step counting (TIRF); competition: Ma1α-neoGreen in X. laevis oocytes co-injected with 25% or 50% of the total cRNA as untagged Ma1β

percent of fluorescent spots with two discrete bleaching steps [1] | stoichiometry N [1] | percent Ma1α-neoGreen dimer population (two bleaching steps) with 25% of the total cRNA as untagged Ma1β [2] | percent Ma1α-neoGreen dimer population (two bleaching steps) with 50% of the total cRNA as untagged Ma1β [2] | Substance
72% | 2 | – | – | Ma1α-neoGreen, expressed in Xenopus laevis oocytes (natural protein)
– | – | 38% | 30% | Ma1β, untagged, expressed in Xenopus laevis oocytes (natural protein)

From PMC11165477
